Where no end group is shown, it is not given here. [ ]: non-standard residue; d: D form. Aib = CC(C)(N)C(=O)O
How the values were obtained:
[1] = target: human glucagon receptor (GCGR) (human, UniProt P47871 26-477); experiment: cell-based or functional assay
[2] = target: human GLP-1 receptor (GLP-1R) (human, UniProt P43220 24-463); experiment: cell-based or functional assay
human GLP-1 receptor (GLP-1R), sequence (P43220 24-463): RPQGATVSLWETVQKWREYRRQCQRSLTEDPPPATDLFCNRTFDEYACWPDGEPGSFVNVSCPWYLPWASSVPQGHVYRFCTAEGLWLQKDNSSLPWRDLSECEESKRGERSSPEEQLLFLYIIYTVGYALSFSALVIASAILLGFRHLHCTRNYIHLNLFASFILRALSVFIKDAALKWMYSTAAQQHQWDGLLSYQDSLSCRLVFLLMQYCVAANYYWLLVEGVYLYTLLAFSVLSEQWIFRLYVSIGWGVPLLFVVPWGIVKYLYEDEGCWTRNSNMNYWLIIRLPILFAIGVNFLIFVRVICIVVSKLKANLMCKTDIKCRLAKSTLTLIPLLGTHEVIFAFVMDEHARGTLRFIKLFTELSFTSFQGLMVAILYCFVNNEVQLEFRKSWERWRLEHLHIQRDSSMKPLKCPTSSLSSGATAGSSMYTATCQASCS

B1: Compound A46 (peptide)
peptide: YSHGTFTSDYSKYLD[Aib]KRAQEFV[Aib]WLEDEKRNKPPIA-OH
modifications: N-terminus assumed
SMILES: CC[C@H](C)[C@H](NC(=O)[C@@H]1CCCN1C(=O)[C@@H]1CCCN1C(=O)[C@H](CCCCN)NC(=O)[C@H](CC(N)=O)NC(=O)[C@H](CCCNC(=N)N)NC(=O)[C@H](CCCCN)NC(=O)[C@H](CCC(=O)O)NC(=O)[C@H](CC(=O)O)NC(=O)[C@H](CCC(=O)O)NC(=O)[C@H](CC(C)C)NC(=O)[C@H](Cc1c[nH]c2ccccc12)NC(=O)C(C)(C)NC(=O)[C@@H](NC(=O)[C@H](Cc1ccccc1)NC(=O)[C@H](CCC(=O)O)NC(=O)[C@H](CCC(N)=O)NC(=O)[C@H](C)NC(=O)[C@H](CCCNC(=N)N)NC(=O)[C@H](CCCCN)NC(=O)C(C)(C)NC(=O)[C@H](CC(=O)O)NC(=O)[C@H](CC(C)C)NC(=O)[C@H](Cc1ccc(O)cc1)NC(=O)[C@H](CCCCN)NC(=O)[C@H](CO)NC(=O)[C@H](Cc1ccc(O)cc1)NC(=O)[C@H](CC(=O)O)NC(=O)[C@H](CO)NC(=O)[C@@H](NC(=O)[C@H](Cc1ccccc1)NC(=O)[C@@H](NC(=O)CNC(=O)[C@H](Cc1c[nH]cn1)NC(=O)[C@H](CO)NC(=O)[C@@H](N)Cc1ccc(O)cc1)[C@@H](C)O)[C@@H](C)O)C(C)C)C(=O)N[C@@H](C)C(=O)O
B1 was tested, and the “hGCGR pEC50 (cAMP)” value [1] was 12.5 pEC50 and the “hGLP1 pEC50 (cAMP)” value [2] was under 9 pEC50.

B2: Compound A48 (peptide)
peptide: YSHGTFTSDYSKYLD[Aib]KRAQEFV[Aib]WLEDEKRNKNPPPS-OH
modifications: N-terminus assumed
SMILES: CC(C)C[C@H](NC(=O)[C@H](Cc1ccc(O)cc1)NC(=O)[C@H](CCCCN)NC(=O)[C@H](CO)NC(=O)[C@H](Cc1ccc(O)cc1)NC(=O)[C@H](CC(=O)O)NC(=O)[C@H](CO)NC(=O)[C@@H](NC(=O)[C@H](Cc1ccccc1)NC(=O)[C@@H](NC(=O)CNC(=O)[C@H](Cc1c[nH]cn1)NC(=O)[C@H](CO)NC(=O)[C@@H](N)Cc1ccc(O)cc1)[C@@H](C)O)[C@@H](C)O)C(=O)N[C@@H](CC(=O)O)C(=O)NC(C)(C)C(=O)N[C@@H](CCCCN)C(=O)N[C@@H](CCCNC(=N)N)C(=O)N[C@@H](C)C(=O)N[C@@H](CCC(N)=O)C(=O)N[C@@H](CCC(=O)O)C(=O)N[C@@H](Cc1ccccc1)C(=O)N[C@H](C(=O)NC(C)(C)C(=O)N[C@@H](Cc1c[nH]c2ccccc12)C(=O)N[C@@H](CC(C)C)C(=O)N[C@@H](CCC(=O)O)C(=O)N[C@@H](CC(=O)O)C(=O)N[C@@H](CCC(=O)O)C(=O)N[C@@H](CCCCN)C(=O)N[C@@H](CCCNC(=N)N)C(=O)N[C@@H](CC(N)=O)C(=O)N[C@@H](CCCCN)C(=O)N[C@@H](CC(N)=O)C(=O)N1CCC[C@H]1C(=O)N1CCC[C@H]1C(=O)N1CCC[C@H]1C(=O)N[C@@H](CO)C(=O)O)C(C)C
For B2, the “hGCGR pEC50 (cAMP)” value [1] was 12.9 pEC50 and the “hGLP1 pEC50 (cAMP)” value [2] was under 9 pEC50.

B3: Compound A49 (peptide)
peptide: YSHGTFTSDYSKYLD[Aib]KRAQEFV[Aib]WLEDEPRNKNNPPS-OH
modifications: N-terminus assumed
SMILES: CC(C)C[C@H](NC(=O)[C@H](Cc1ccc(O)cc1)NC(=O)[C@H](CCCCN)NC(=O)[C@H](CO)NC(=O)[C@H](Cc1ccc(O)cc1)NC(=O)[C@H](CC(=O)O)NC(=O)[C@H](CO)NC(=O)[C@@H](NC(=O)[C@H](Cc1ccccc1)NC(=O)[C@@H](NC(=O)CNC(=O)[C@H](Cc1c[nH]cn1)NC(=O)[C@H](CO)NC(=O)[C@@H](N)Cc1ccc(O)cc1)[C@@H](C)O)[C@@H](C)O)C(=O)N[C@@H](CC(=O)O)C(=O)NC(C)(C)C(=O)N[C@@H](CCCCN)C(=O)N[C@@H](CCCNC(=N)N)C(=O)N[C@@H](C)C(=O)N[C@@H](CCC(N)=O)C(=O)N[C@@H](CCC(=O)O)C(=O)N[C@@H](Cc1ccccc1)C(=O)N[C@H](C(=O)NC(C)(C)C(=O)N[C@@H](Cc1c[nH]c2ccccc12)C(=O)N[C@@H](CC(C)C)C(=O)N[C@@H](CCC(=O)O)C(=O)N[C@@H](CC(=O)O)C(=O)N[C@@H](CCC(=O)O)C(=O)N1CCC[C@H]1C(=O)N[C@@H](CCCNC(=N)N)C(=O)N[C@@H](CC(N)=O)C(=O)N[C@@H](CCCCN)C(=O)N[C@@H](CC(N)=O)C(=O)N[C@@H](CC(N)=O)C(=O)N1CCC[C@H]1C(=O)N1CCC[C@H]1C(=O)N[C@@H](CO)C(=O)O)C(C)C
With B3 the “hGCGR pEC50 (cAMP)” value [1] was 12.4 pEC50 and the “hGLP1 pEC50 (cAMP)” value [2] was under 9 pEC50.

B4: Compound A50 (peptide)
peptide: YSHGTFTSDYSKYLD[Aib]KRAQEFV[Aib]WLEDEKRNKPPPS-OH
modifications: N-terminus assumed
SMILES: CC(C)C[C@H](NC(=O)[C@H](Cc1ccc(O)cc1)NC(=O)[C@H](CCCCN)NC(=O)[C@H](CO)NC(=O)[C@H](Cc1ccc(O)cc1)NC(=O)[C@H](CC(=O)O)NC(=O)[C@H](CO)NC(=O)[C@@H](NC(=O)[C@H](Cc1ccccc1)NC(=O)[C@@H](NC(=O)CNC(=O)[C@H](Cc1c[nH]cn1)NC(=O)[C@H](CO)NC(=O)[C@@H](N)Cc1ccc(O)cc1)[C@@H](C)O)[C@@H](C)O)C(=O)N[C@@H](CC(=O)O)C(=O)NC(C)(C)C(=O)N[C@@H](CCCCN)C(=O)N[C@@H](CCCNC(=N)N)C(=O)N[C@@H](C)C(=O)N[C@@H](CCC(N)=O)C(=O)N[C@@H](CCC(=O)O)C(=O)N[C@@H](Cc1ccccc1)C(=O)N[C@H](C(=O)NC(C)(C)C(=O)N[C@@H](Cc1c[nH]c2ccccc12)C(=O)N[C@@H](CC(C)C)C(=O)N[C@@H](CCC(=O)O)C(=O)N[C@@H](CC(=O)O)C(=O)N[C@@H](CCC(=O)O)C(=O)N[C@@H](CCCCN)C(=O)N[C@@H](CCCNC(=N)N)C(=O)N[C@@H](CC(N)=O)C(=O)N[C@@H](CCCCN)C(=O)N1CCC[C@H]1C(=O)N1CCC[C@H]1C(=O)N1CCC[C@H]1C(=O)N[C@@H](CO)C(=O)O)C(C)C
In the case of B4, the “hGCGR pEC50 (cAMP)” value [1] is reported as 11.5 pEC50 and the “hGLP1 pEC50 (cAMP)” value [2] is reported as under 9 pEC50.

B5: Compound A47 (peptide)
peptide: YSHGTFTSDYSKYLD[Aib]KRAQEFV[Aib]WLEDEKRNKNPPS-OH
modifications: N-terminus assumed
SMILES: CC(C)C[C@H](NC(=O)[C@H](Cc1ccc(O)cc1)NC(=O)[C@H](CCCCN)NC(=O)[C@H](CO)NC(=O)[C@H](Cc1ccc(O)cc1)NC(=O)[C@H](CC(=O)O)NC(=O)[C@H](CO)NC(=O)[C@@H](NC(=O)[C@H](Cc1ccccc1)NC(=O)[C@@H](NC(=O)CNC(=O)[C@H](Cc1c[nH]cn1)NC(=O)[C@H](CO)NC(=O)[C@@H](N)Cc1ccc(O)cc1)[C@@H](C)O)[C@@H](C)O)C(=O)N[C@@H](CC(=O)O)C(=O)NC(C)(C)C(=O)N[C@@H](CCCCN)C(=O)N[C@@H](CCCNC(=N)N)C(=O)N[C@@H](C)C(=O)N[C@@H](CCC(N)=O)C(=O)N[C@@H](CCC(=O)O)C(=O)N[C@@H](Cc1ccccc1)C(=O)N[C@H](C(=O)NC(C)(C)C(=O)N[C@@H](Cc1c[nH]c2ccccc12)C(=O)N[C@@H](CC(C)C)C(=O)N[C@@H](CCC(=O)O)C(=O)N[C@@H](CC(=O)O)C(=O)N[C@@H](CCC(=O)O)C(=O)N[C@@H](CCCCN)C(=O)N[C@@H](CCCNC(=N)N)C(=O)N[C@@H](CC(N)=O)C(=O)N[C@@H](CCCCN)C(=O)N[C@@H](CC(N)=O)C(=O)N1CCC[C@H]1C(=O)N1CCC[C@H]1C(=O)N[C@@H](CO)C(=O)O)C(C)C
For B5, the “hGCGR pEC50 (cAMP)” value [1] was 11.5 pEC50 and the “hGLP1 pEC50 (cAMP)” value [2] was under 9 pEC50.

Reference: US20180009871A1 (INTARCIA THERAPEUTICS, published 2018)
